Data published in publication PMC9603813, “Genome-Wide Analysis Reveals that PhoP Regulates Pathogenicity in Riemerella anatipestifer”.

Columns and labels:
Conditions in all cases: protein: recombinant; tags: His6 (pET-28a); chain copies: 2; label: 5' biotin on strand 1; blunt
His6-PhoP [1] = target: T1, His6-PhoP (Riemerella anatipestifer RA-YM, UniProt E4TAE7 2-228); assay: EMSA; unphosphorylated
T1 sequence: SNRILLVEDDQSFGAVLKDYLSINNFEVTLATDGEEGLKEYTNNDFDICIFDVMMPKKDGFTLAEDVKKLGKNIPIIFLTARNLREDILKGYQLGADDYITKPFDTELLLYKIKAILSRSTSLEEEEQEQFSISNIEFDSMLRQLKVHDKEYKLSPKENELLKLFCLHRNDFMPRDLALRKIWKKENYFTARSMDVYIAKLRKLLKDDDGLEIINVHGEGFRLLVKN

His6-PhoP [2] = target: T1, His6-PhoP; assay: EMSA; phosphorylated by acetyl phosphate
His6-PhoP [3] = target: T1, His6-PhoP; assay: EMSA
His6-PhoP-DBD = target: T2, His6-PhoP-DBD (Riemerella anatipestifer RA-YM, UniProt E4TAE7 130-228); assay: EMSA
T2 sequence: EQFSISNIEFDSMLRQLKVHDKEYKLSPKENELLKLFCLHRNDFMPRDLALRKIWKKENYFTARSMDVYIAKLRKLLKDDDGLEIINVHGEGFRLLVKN

B1: KYF39_00915 (transposase) probe (dsDNA)
DNA 1: TGAAAATTTCAAATTTAACTAAAGCTTATAGCAAT
DNA 2: ATTGCTATAAGCTTTAGTTAAATTTGAAATTTTCA
In the case of B1, the Kd (His6-PhoP [1]) is reported as 29.8 nM and the Kd (His6-PhoP [2]) is reported as 33.9 nM.

B2: KYF39_07405 (OMPbB) probe (dsDNA)
DNA 1: ATAAAGTGGCAAATTTAACTTTAATAATTAAAAGA
DNA 2: TCTTTTAATTATTAAAGTTAAATTTGCCACTTTAT
B2: binds (His6-PhoP [3]).

B3: KYF39_00905 (transporter) probe (dsDNA)
DNA 1: CAAAAAATATTTCATTAACAGAATAGACAATCATA
DNA 2: TATGATTGTCTATTCTGTTAATGAAATATTTTTTG
Binder B3 has a Kd (His6-PhoP [1]) of 39.2 nM and a Kd (His6-PhoP [2]) of 39.5 nM.

B4: KYF39_06865 motif probe (dsDNA)
DNA 1: CGTTAAAAAATAAAGCGAGGTTTTGTTGTTTTAAA
DNA 2: TTTAAAACAACAAAACCTCGCTTTATTTTTTAACG
B4: binds (His6-PhoP [3]).

B5: dedA motif probe (dsDNA)
DNA 1: ATCTATAAAGAGATTTAACAAATTTTATAATTCTA
DNA 2: TAGAATTATAAAATTTGTTAAATCTCTTTATAGAT
B5: binds (His6-PhoP [3]).

B6: phoPR motif probe (dsDNA)
DNA 1: AAACTCATAATAATCTGTTAAAAAACTCGTTTTTA
DNA 2: TAAAAACGAGTTTTTTAACAGATTATTATGAGTTT
B6: binds (His6-PhoP [3]); no binding (His6-PhoP-DBD).
